Measurements published in the supplement of paper PMC10567573.

B1: PBXIP1 (parent)
chain: LQQLRARLQGLEADCVRGPDGVCL
B2: TNXB (parent)
chain: FSEIRETSAKVNWMPPPSRADSFK

Variants of: B1
Test: protein stability index of a GFP-peptide fusion (GPS, HEK-293T) (PSI 1-6); higher = more stable
Conditions: c terminus: a fixed tail appended
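Note: lentivirally expressed fusions sorted by FACS into six bins by GFP to DsRed ratio, PSI derived from sequencing read proportions per bin multiplied by bin number.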

Protein stability index: each site, then its substitutions
L8: M 2.05 | I 2.84 | P 3.56 | W 2.24 | K 3.57 | T 3.43 | F 2.29 | N 3.94 | V 1.99 | E 5.35 | Q 3.36 | D 3.58
Q2: C 3.55 | R 1.82 | W 1.28 | P 3.05 | T 2.61 | E 2.63 | L 1.41 | F 3.06 | N 3.27 | K 1.38 | G 2.38 | I 1.3 | Y 1.24 | S 2.63 | M 1.74
E12: Q 2.26 | Y 2.73 | T 2.02 | H 1.35 | P 1.8 | V 2.79 | D 2.23
R7: S 2.72 | Y 1.73 | P 2.59 | F 2.09 | G 3.55 | H 2.91 | W 2.28 | A 2.12 | L 3.52 | K 2.28 | I 2.57 | N 2.93 | Q 3.33 | V 2.03 | D 3.89 | E 4.03 | T 2.52
Q9: K 1.87 | R 1.17 | H 2.42 | A 1.43 | E 1.6 | G 2.28 | D 2.86 | T 1.04 | P 2.8 | S 1.37 | W 1.86 | C 3.05
R5: Y 2.34 | I 2.42 | T 3.04 | D 4.08 | F 2.14 | N 2.87 | L 1.17 | P 2.98 | E 3.78 | H 2.61 | K 2.2 | S 2.76 | M 1.84 | G 2.78 | C 1.24
L11: R 2.88 | A 2.46 | Y 2.75 | T 3.01 | I 1.93 | H 2.41 | P 2.07 | G 4.24 | N 3.09 | S 3.09 | D 4.28 | Q 3.97 | F 2.25 | E 3.75 | K 3.69 | W 2.78 | M 2.75
L4: T 3.18 | W 2.65 | M 2.03 | P 2.42 | I 1.49 | F 2.97 | V 1.81 | R 3.19 | E 3.75 | D 4.69 | H 3.26 | N 3.83 | Q 3.48 | C 1.96 | S 3.01
C15: N 1.95 | A 2.6 | H 1.81 | I 1.87 | L 2.5 | G 1.96 | K 2.29 | D 2.65 | Q 1.99
D14: N 1.75 | P 2.1 | W 1.32 | R 2.93 | G 1.15 | E 2.24 | M 3.39 | Q 2.21 | Y 1.14 | I 2.73
L1: H 3.85 | E 5.29 | Y 2.22 | T 3.66 | V 2.52 | N 2.96 | C 2.92 | P 4.19 | Q 3.83 | I 1.72 | A 3.3 | S 4.1 | F 1.12 | K 3.5 | R 3.76
G10: E 2.64 | I 1.65 | Q 2.53 | D 2.35 | M 2.02 | W 2.15 | A 1.24
A6: F 1.95 | G 2.84 | Q 1.54 | Y 2.03 | I 1.43 | S 3.27 | N 2.19 | W 3.19 | V 2.4 | D 2 | M 1.36 | T 3.11 | P 3.61 | R 1.32 | H 2.47
A13: S 2.29 | I 1.34 | H 1.68 | Y 2.01 | M 2.79 | N 2.56 | K 2.52 | W 1.01 | C 2.08 | G 1.87 | E 2.97 | V 2.35 | L 1.45 | Q 3.12
Q3: R 3.08 | A 1.98 | K 1.97 | T 1.2 | M 3.04 | G 2.66 | E 2.58 | L 1.93 | P 3.53 | N 2.36 | I 1.68 | Y 1.4

Variants of: B2
Test: as above
Conditions: c terminus: a fixed tail appended

Protein stability index of substitutions, site by site:
K24: Y 2.64 | D 3.41 | N 3.43 | S 3.29 | C 2.94 | H 2.73 | T 3.37 | M 2.48 | V 2.63 | I 2.44 | G 3.35 | F 2.47 | E 3.21 | R 3.29 | W 1.69 | L 2.42 | A 2.92 | P 3.14 | Q 3.33
D21: A 3.17 | V 3.28 | L 3.06 | S 3.62 | T 2.6 | M 3.41 | R 3.52 | P 3.61 | F 2.02 | E 3.79 | W 2.45 | Q 3.5 | N 3.34 | K 3.76 | G 3.52 | Y 3.01 | H 3.13 | I 3.05 | C 2.79
F23: T 4.06 | R 4.44 | P 4.55 | Y 3.09 | S 3.89 | G 3.24 | H 4.12 | C 4.22 | E 4.33 | N 4.1 | V 4.07 | W 3.32 | K 4.12 | A 4.04 | Q 3.58 | D 4.56 | L 3.91 | M 3.82 | I 3.5
R19: F 2.49 | W 2.18 | S 3.73 | G 3.43 | N 3.85 | A 3.52 | C 3.33 | Y 3.19 | L 2.65 | H 3.15 | P 3.7 | T 3.71 | V 3.38 | K 3.6 | Q 3.6 | D 4.25 | M 3.12 | E 4.2 | I 3.12
A20: G 3.24 | Q 3.27 | H 3.45 | M 2.79 | P 3.13 | N 3.27 | D 3.88 | I 3.05 | E 3.6 | V 2.46 | K 3.8 | Y 2.93 | R 3.61 | S 3.5 | C 3.71 | L 2.9 | F 2.73 | T 2.8 | W 2.92
S18: E 3.67 | R 3.43 | W 1.98 | G 3.51 | Q 3.64 | M 2.89 | C 3.37 | H 3.3 | A 3.68 | F 2.71 | I 2.46 | P 3.42 | T 3.16 | V 3.32 | D 3.52 | K 3.57 | Y 3.5 | N 3.18 | L 2.75
P17: N 3.35 | Q 3.24 | R 3.3 | Y 2.67 | W 2.79 | T 3.99 | S 3.44 | M 2.97 | V 3.23
S22: L 3.22 | H 3.27 | D 3.62 | V 2.94 | M 2.79 | E 3.69 | G 2.97 | F 2.39 | P 3.36 | I 3.38 | Y 3.32 | R 3.95 | W 2.62 | K 3.58 | C 3.29 | N 3.38 | T 3.26 | Q 3.42 | A 3.32
